According to paper PMC10250209, “UV-DDB stimulates the activity of SMUG1 during base excision repair of 5-hydroxymethyl-2'-deoxyuridine moieties”:

How the values were obtained:
[1] = biological target: T1, SMUG1 WT (UniProt Q53HV7); test: EMSA; conditions: apparent Kd; abasic substrate taken as THF37; tetrahydrofuran abasic analog (Z, written N) at position 20 of top strand, opposite T; EMSA: 8 nM DNA, 20 mM HEPES pH 7.5, 150 mM NaCl, 2 mM DTT (5 mM for SMUG1), 5% glycerol, 0.5 mg/ml BSA (0.5 mg/l [sic] for SMUG1), +/- 1.5 mM MgCl2, RT 20 min
T1 sequence: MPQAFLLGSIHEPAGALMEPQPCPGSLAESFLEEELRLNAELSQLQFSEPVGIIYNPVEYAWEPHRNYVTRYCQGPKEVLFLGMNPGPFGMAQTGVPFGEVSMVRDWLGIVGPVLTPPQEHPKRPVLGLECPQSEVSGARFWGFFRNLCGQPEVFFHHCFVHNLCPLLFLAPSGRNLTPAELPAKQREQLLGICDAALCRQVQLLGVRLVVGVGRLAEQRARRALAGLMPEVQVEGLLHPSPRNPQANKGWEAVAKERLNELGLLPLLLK

[2] = biological target: single-strand selective monofunctional DNA glycosylase (SMUG1), His-tagged (UniProt Q53HV7); test: single-molecule DNA tightrope assay, dual-colour Qdot co-localisation; 605 Qdot-labelled His-SMUG1 (2.6 nM) injected first, then 705 Qdot-labelled Flag-UV-DDB (3.1 nM), on DNA tightropes with one abasic (THF) site every 2 kb; 25 mM HEPES pH 7.5, 150 mM NaCl, 0.1 mg/ml BSA, 50 nM biotin, 1 mM DTT; RT
[3] = biological target: T1, SMUG1 WT; test: single-molecule DNA tightrope; conditions: tetrahydrofuran abasic site every 2 kb, EMSA: 8 nM DNA, 20 mM HEPES pH 7.5, 150 mM NaCl, 2 mM DTT (5 mM for SMUG1), 5% glycerol, 0.5 mg/ml BSA (0.5 mg/l [sic] for SMUG1), +/- 1.5 mM MgCl2, RT 20 min
[4] = biological target: T2, UV-DDB (DDB1-DDB2 heterodimer) (UniProt Q16531;Q92466 1-1140;1-427); test: EMSA; no Mg2+; EMSA: 8 nM DNA, 20 mM HEPES pH 7.5, 150 mM NaCl, 2 mM DTT (5 mM for SMUG1), 5% glycerol, 0.5 mg/ml BSA (0.5 mg/l [sic] for SMUG1), +/- 1.5 mM MgCl2, RT 20 min (30 min for displacement); 5% native gel, 1/2x TBE, 4 C; conditions: protein: recombinant, tags: DDB1-6xHis, DDB2-Flag, copies: 1;1, label: 3'-6FAM on top strand, blunt
T2 sequence (Q16531 whole entry, chain 1 of 2): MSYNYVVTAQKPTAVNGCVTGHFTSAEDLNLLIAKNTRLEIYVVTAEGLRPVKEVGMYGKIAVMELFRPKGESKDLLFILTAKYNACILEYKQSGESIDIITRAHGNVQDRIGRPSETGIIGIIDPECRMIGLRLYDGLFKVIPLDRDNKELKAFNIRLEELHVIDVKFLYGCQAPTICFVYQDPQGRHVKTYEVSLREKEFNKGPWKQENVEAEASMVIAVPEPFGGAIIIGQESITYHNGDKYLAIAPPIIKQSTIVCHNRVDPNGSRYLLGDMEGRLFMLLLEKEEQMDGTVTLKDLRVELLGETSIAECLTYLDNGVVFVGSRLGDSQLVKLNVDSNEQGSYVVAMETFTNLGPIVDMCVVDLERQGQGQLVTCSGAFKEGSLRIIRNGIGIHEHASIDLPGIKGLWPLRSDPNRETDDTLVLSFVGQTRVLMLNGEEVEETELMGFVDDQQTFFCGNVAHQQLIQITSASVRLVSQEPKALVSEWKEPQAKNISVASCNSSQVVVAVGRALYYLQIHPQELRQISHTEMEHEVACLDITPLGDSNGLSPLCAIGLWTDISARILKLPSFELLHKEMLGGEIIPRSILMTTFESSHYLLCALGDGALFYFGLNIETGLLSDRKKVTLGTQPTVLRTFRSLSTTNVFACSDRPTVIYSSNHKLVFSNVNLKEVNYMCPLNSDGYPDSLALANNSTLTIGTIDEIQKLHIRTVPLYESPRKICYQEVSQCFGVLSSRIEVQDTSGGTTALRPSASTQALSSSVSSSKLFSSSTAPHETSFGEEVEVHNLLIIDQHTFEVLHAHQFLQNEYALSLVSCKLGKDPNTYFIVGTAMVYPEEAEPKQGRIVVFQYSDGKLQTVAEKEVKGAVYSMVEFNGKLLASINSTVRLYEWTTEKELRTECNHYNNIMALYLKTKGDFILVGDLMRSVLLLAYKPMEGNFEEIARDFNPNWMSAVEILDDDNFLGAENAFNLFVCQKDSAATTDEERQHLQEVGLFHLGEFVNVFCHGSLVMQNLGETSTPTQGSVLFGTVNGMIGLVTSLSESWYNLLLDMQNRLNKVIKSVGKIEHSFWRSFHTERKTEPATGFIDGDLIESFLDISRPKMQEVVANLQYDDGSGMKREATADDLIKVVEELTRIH
T2 sequence (Q92466 whole entry, chain 2 of 2): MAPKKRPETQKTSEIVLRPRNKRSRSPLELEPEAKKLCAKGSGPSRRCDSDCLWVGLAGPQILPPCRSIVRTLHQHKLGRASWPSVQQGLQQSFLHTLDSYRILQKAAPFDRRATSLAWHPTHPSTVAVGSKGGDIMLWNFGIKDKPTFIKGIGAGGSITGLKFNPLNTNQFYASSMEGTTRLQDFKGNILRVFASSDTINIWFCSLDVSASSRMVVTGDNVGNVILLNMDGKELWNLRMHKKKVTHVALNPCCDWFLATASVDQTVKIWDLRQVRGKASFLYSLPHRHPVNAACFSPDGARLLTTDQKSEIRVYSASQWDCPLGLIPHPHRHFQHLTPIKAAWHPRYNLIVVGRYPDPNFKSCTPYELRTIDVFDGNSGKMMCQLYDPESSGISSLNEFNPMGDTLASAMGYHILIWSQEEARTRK

[5] = biological target: T2, UV-DDB (DDB1-DDB2 heterodimer); test: EMSA; 1.5 mM Mg2+; EMSA: 8 nM DNA, 20 mM HEPES pH 7.5, 150 mM NaCl, 2 mM DTT (5 mM for SMUG1), 5% glycerol, 0.5 mg/ml BSA (0.5 mg/l [sic] for SMUG1), +/- 1.5 mM MgCl2, RT 20 min (30 min for displacement); 5% native gel, 1/2x TBE, 4 C; conditions: protein: recombinant, tags: DDB1-6xHis, DDB2-Flag, copies: 1;1, label: 3'-6FAM on top strand, blunt

CCGAGTCATTCCTGCAGCGNGTCCATGGGAGTCAAAT / ATTTGACTCCCATGGACTCGCTGCAGGAATGACTCGG [THF37]
Kd [1]: 65 nM

UV-damaged DNA-binding protein (UV-DDB), DDB1-6xHis/DDB2-Flag heterodimer (from UniProt Q16531 1-1140; Q92466 1-427) (complex)
percent of all particles co-localised on abasic DNA [2]: 15.6%

DNA tightrope with one THF site every 2 kb
binding ([3]; bound half-life with equimolar unlabeled UV-DDB, Qdot-labeled SMUG1): 580 s | binding ([3]; bound half-life, SMUG1 alone, Qdot-labeled): 4950 s

B1: dU:dA37 (dsDNA)
DNA 1: CCGAGTCATTCCTGCAGCGAGUCCATGGGAGTCAAAT
DNA 2: ATTTGACTCCCATGGACTCGCTGCAGGAATGACTCGG
modifications: dU at position 22 of top strand, opposite dA
Kd [4]: 15 ± 1 nM | Kd [5]: 52 ± 3.4 nM

B2: dU:dG37 (dsDNA)
DNA 1: CCGAGTCATTCCTGCAGCGAGUCCATGGGAGTCAAAT
DNA 2: ATTTGACTCCCATGGGCTCGCTGCAGGAATGACTCGG
modifications: dU at position 22 of top strand, opposite dG
Kd ([4]; U:G mispair): 18 ± 1.6 nM | Kd ([5]; U:G mispair): 21 ± 2.1 nM

B3: 5-hmdU:dA37 (dsDNA)
DNA 1: CCGAGTCATTCCTGCAGCGAGUCCATGGGAGTCAAAT
DNA 2: ATTTGACTCCCATGGACTCGCTGCAGGAATGACTCGG
modifications: 5-hydroxymethyl-dU (X, written U) at position 22 of top strand, opposite dA
Kd [4]: 14 ± 1.1 nM | Kd [5]: 48 ± 3 nM

B4: 5-hmdU:dG37 (dsDNA)
DNA 1: CCGAGTCATTCCTGCAGCGAGUCCATGGGAGTCAAAT
DNA 2: ATTTGACTCCCATGGGCTCGCTGCAGGAATGACTCGG
modifications: 5-hydroxymethyl-dU (X, written U) at position 22 of top strand, opposite dG
Kd ([4]; 5-hmdU:G mispair): 16 ± 1.5 nM | Kd ([5]; 5-hmdU:G mispair): 27 ± 1.9 nM

B5: UD37 (undamaged) (dsDNA)
DNA 1: CCGAGTCATTCCTGCAGCGAGTCCATGGGAGTCAAAT
DNA 2: ATTTGACTCCCATGGACTCGCTGCAGGAATGACTCGG
Kd [4]: 31 ± 2 nM | Kd [5]: 125 ± 9.1 nM
